From patent publication US20240189392A1
Positions of bridges follow the written chain, without caps; N, C: chain ends. Chains are numbered I, II in the order given. No end group written: not given here.

Molecular target: human RXFP2 (human), Q8WXD0
Assay: cell-based or functional assay

human RXFP2 (human), Q8WXD0, sequence (Q8WXD0 whole entry): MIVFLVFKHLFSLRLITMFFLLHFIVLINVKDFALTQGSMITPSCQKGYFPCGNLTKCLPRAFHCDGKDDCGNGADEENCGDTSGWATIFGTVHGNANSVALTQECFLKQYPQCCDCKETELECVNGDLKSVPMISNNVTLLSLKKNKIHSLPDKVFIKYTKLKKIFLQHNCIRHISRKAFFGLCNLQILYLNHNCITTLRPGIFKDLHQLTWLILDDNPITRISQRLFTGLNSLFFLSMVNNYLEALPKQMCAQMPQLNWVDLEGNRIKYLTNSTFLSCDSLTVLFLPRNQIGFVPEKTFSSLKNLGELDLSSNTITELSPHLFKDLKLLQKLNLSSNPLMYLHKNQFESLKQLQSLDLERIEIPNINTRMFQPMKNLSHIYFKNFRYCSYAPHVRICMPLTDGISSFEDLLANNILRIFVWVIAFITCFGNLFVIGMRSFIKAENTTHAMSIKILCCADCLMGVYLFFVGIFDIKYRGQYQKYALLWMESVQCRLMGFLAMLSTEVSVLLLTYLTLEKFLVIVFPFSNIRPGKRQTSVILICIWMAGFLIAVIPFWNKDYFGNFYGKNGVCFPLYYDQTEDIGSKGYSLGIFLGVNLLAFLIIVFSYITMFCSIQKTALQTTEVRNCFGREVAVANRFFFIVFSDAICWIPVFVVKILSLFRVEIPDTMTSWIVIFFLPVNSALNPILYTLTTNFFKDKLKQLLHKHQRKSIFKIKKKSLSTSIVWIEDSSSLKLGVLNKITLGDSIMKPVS

Maximal cAMP stimulation by RLX-A-AQ1-20KPEG compared to WT-RLX (percent difference), AVG, hRXFP2 [%] | Potency Ratio (RLX-A-AQ1-20KPEG/WT-RLX), cAMP assay, human RXFP2/CHO-K1 cells [fold] | RLX-A-AQ1-20KPEG Potency Ratio (hRXFP 1-1.0), cAMP assay | cAMP Assay EC50 (nM), human RXFP2/CHO-K1 cells [nM] | fold less potent than INSL3, cAMP assay, human RXFP2/CHO-K1 cells [fold] | Binder
99 | 32 | 54 | 174 | – | RLX-A-AQ1-20KPEG (ligand, here or on the partner: pACF (para-acetylphenylalanine) at position 1 of the A chain, linked to a 20 kDA PEG via an oxime linkage) chain 1: XLYSALANKCCHVGCTKRSLARFC chain 2: ASWMEEVIKLCGRELVRAQIAICGMSTWS
– | – | – | – | 10 | wild-type relaxin (human relaxin 2) (ligand, disulfide I:10-I:15, I:11-II:11, I:24-II:23) chain 1: QLYSALANKCCHVGCTKRSLARFC chain 2: DSWMEEVIKLCGRELVRAQIAICGMSTWS
